Experimental data from PMC8646926 (Advanced Biology, 2021).

Target: the molecule itself
Assay: 15N-1H HSQC NMR (line broadening and signal loss)

B1: SARS-CoV-2 Nsp9, wild type, purified recombinant (natural protein, UniProt P0DTD1 4141-4253, looked up)
chain: NNELSPVALRQMSCAAGTTQTACTDDNALAYYNTTKGGRFVLALLSDLQDLKWARFPKSDGTGTIYTELEPPCRFVTDTPKGPKVKYLYFIKGLNNLNRGMVLGSLAATVRLQ
modifications: 15N or 13C,15N isotope labelling in the NMR experiments
binding result: binds
